Changes are numbered by the printed parent chain. Numbers in names are those of the source. Values belong to the binder of their own block, whether it stands above or below them.
Target: T1, full length WT dynamin-1 (UniProt Q05193)
T1 sequence: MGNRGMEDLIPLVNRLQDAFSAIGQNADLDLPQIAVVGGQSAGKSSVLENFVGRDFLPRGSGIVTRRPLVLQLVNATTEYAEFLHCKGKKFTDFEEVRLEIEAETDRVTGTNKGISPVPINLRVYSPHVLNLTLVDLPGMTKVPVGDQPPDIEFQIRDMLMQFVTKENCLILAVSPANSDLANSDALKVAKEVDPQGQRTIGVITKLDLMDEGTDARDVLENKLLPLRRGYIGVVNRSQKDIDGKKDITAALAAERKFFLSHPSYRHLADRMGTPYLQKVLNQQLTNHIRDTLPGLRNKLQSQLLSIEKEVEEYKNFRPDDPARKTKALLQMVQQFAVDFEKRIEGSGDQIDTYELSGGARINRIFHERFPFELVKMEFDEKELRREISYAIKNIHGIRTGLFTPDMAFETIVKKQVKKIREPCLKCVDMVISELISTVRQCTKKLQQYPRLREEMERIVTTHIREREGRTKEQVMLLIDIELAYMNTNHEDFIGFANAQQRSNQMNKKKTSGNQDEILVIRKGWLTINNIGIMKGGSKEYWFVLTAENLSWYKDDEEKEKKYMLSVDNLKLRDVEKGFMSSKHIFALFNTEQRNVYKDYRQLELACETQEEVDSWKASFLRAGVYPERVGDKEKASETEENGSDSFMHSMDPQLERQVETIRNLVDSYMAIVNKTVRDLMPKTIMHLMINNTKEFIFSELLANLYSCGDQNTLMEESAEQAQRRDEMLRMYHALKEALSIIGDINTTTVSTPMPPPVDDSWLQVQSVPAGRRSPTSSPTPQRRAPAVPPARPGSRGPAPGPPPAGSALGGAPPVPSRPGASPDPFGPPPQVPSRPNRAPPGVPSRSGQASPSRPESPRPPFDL

inhibition of fission activity (vesicle release from SUPER templates) of 0.5 µM WT dynamin-1 by increasing S45N (∼50% at mutant:WT 0.5; value given at 1:1), 1 mM GTP, room temperature: 80%
B1: full length S45N dynamin-1 (enzyme)
chain: T1 sequence with S45N

inhibition of fission activity (vesicle release from SUPER templates) of 0.5 µM WT dynamin-1 by increasing Q40E (∼50% at mutant:WT 0.5; value given at 1:1), 1 mM GTP, room temperature: 60%
B2: full length Q40E dynamin-1 (enzyme)
chain: T1 sequence with Q40E

— article PMC3561337
